Reference: paper PMC13379236 (Cell reports, 2026)

B1: NLRP1 Gly/N-degron: C-terminal fragment generated by 3C cleavage, which exposes the Gly/N-degron, begins at glycine-131 (protein)
chain: GSERRVLRQLPDTSGRRWREISASLLYQALPSSPDHESPSQESPNAPTSTAVLGSWGSPPQPSLAPREQEAPGTQWPLDETSGIYYTEIREREREKSEKGRPPWAAVVGTPPQAHTSLQPHHHPWEPSVRESLCSTWPWKNEDFNQKFTQLLLLQRPHPRSQDPLVKRSWPDYVEENRGHLIEIRDLFGPGLDTQEPRIVILQGAAGIGKSTLARQVKEAWGRGQLYGDRFQHVFYFSCRELAQSKVVSLAELIGKDGTATPAPIRQILSRPERLLFILDGVDEPGWVLQEPSSELCLHWSQPQPADALLGSLLGKTILPEASFLITARTTALQNLIPSLEQARWVEVLGFSESSRKEYFYRYFTDERQAIRAFRLVKSNKELWALCLVPWVSWLACTCLMQQMKRKEKLTLTSKTTTTLCLHYLAQALQAQPLGPQLRDLCSLAAEGIWQKKTLFSPDDLRKHGLDGAIISTFLKMGILQEHPIPLSYSFIHLCFQEFFAAMSYVLEDEKGRGKHSNCIIDLEKTLEAYGIHGLFGASTTRFLLGLLSDEGEREMENIFHCRLSQGRNLMQWVPSLQLLLQPHSLESLHCLYETRNKTFLTQVMAHFEEMGMCVETDMELLVCTFCIKFSRHVKKLQLIEGRQHRSTWSPTMVVLFRWVPVTDAYWQILFSVLKVTRNLKELDLSGNSLSHSAVKSLCKTLRRPRCLLETLRLAGCGLTAEDCKDLAFGLRANQTLTELDLSFNVLTDAGAKHLCQRLRQPSCKLQRLQLVSCGLTSDCCQDLASVLSASPSLKELDLQQNNLDDVGVRLLCEGLRHPACKLIRLGLDQTTLSDEMRQELRALEQEKPQLLIFSRRKPSVMTPTEGLDTGEMSNSTSSLKRQRLGSERAASHVAQANLKLLDVSKIFPIAEIAEESSPEVVPVELLCVPSPASQGDLHTKPLGTDDDFWGPTGPVATEVVDKEKNLYRVHFPVAGSYRWPNTGLCFVMREAVTVEIEFCVWDQFLGEINPQHSWMVAGPLLDIKAEPGAVEAVHLPHFVALQGGHVDTSLFQMAHFKEEGMLLEKPARVELHHIVLENPSFSPLGVLLKMIHNALRFIPVTSVVLLYHRVHPEEVTFHLYLIPSDCSIRKAIDDLEMKFQFVRIHKPPPLTPLYMGCRYTVSGSGSGMLEILPKELELCYRSPGEDQLFSEFYVGHLGSGIRLQVKDKKDETLVWEALVKPGDLMPATTLIPPARIAVPSPLDAPQLLHFVDQYREQLIARVTSVEVVLDKLHGQVLSQEQYERVLAENTRPSQMRKLFSLSQSWDRKCKDGLYQALKETHPHLIMELWEKGSKKGLLPLSS
B2: E133K: E133K mutation of NLRP1 (residue E3 of the Gly/N-degron) (protein)
chain: GSKRRVLRQLPDTSGRRWREISASLLYQALPSSPDHESPSQESPNAPTSTAVLGSWGSPPQPSLAPREQEAPGTQWPLDETSGIYYTEIREREREKSEKGRPPWAAVVGTPPQAHTSLQPHHHPWEPSVRESLCSTWPWKNEDFNQKFTQLLLLQRPHPRSQDPLVKRSWPDYVEENRGHLIEIRDLFGPGLDTQEPRIVILQGAAGIGKSTLARQVKEAWGRGQLYGDRFQHVFYFSCRELAQSKVVSLAELIGKDGTATPAPIRQILSRPERLLFILDGVDEPGWVLQEPSSELCLHWSQPQPADALLGSLLGKTILPEASFLITARTTALQNLIPSLEQARWVEVLGFSESSRKEYFYRYFTDERQAIRAFRLVKSNKELWALCLVPWVSWLACTCLMQQMKRKEKLTLTSKTTTTLCLHYLAQALQAQPLGPQLRDLCSLAAEGIWQKKTLFSPDDLRKHGLDGAIISTFLKMGILQEHPIPLSYSFIHLCFQEFFAAMSYVLEDEKGRGKHSNCIIDLEKTLEAYGIHGLFGASTTRFLLGLLSDEGEREMENIFHCRLSQGRNLMQWVPSLQLLLQPHSLESLHCLYETRNKTFLTQVMAHFEEMGMCVETDMELLVCTFCIKFSRHVKKLQLIEGRQHRSTWSPTMVVLFRWVPVTDAYWQILFSVLKVTRNLKELDLSGNSLSHSAVKSLCKTLRRPRCLLETLRLAGCGLTAEDCKDLAFGLRANQTLTELDLSFNVLTDAGAKHLCQRLRQPSCKLQRLQLVSCGLTSDCCQDLASVLSASPSLKELDLQQNNLDDVGVRLLCEGLRHPACKLIRLGLDQTTLSDEMRQELRALEQEKPQLLIFSRRKPSVMTPTEGLDTGEMSNSTSSLKRQRLGSERAASHVAQANLKLLDVSKIFPIAEIAEESSPEVVPVELLCVPSPASQGDLHTKPLGTDDDFWGPTGPVATEVVDKEKNLYRVHFPVAGSYRWPNTGLCFVMREAVTVEIEFCVWDQFLGEINPQHSWMVAGPLLDIKAEPGAVEAVHLPHFVALQGGHVDTSLFQMAHFKEEGMLLEKPARVELHHIVLENPSFSPLGVLLKMIHNALRFIPVTSVVLLYHRVHPEEVTFHLYLIPSDCSIRKAIDDLEMKFQFVRIHKPPPLTPLYMGCRYTVSGSGSGMLEILPKELELCYRSPGEDQLFSEFYVGHLGSGIRLQVKDKKDETLVWEALVKPGDLMPATTLIPPARIAVPSPLDAPQLLHFVDQYREQLIARVTSVEVVLDKLHGQVLSQEQYERVLAENTRPSQMRKLFSLSQSWDRKCKDGLYQALKETHPHLIMELWEKGSKKGLLPLSS

Columns and labels:
ZYG11B-EloBC = ZYG11B-EloBC (Homo sapiens, UniProt Q9C0D3); assay: MBP pull-down with substrate receptor module ZYG11B-EloBC; type: binding; conditions: R466A mutation of ZYG11B, recombinant purified proteins, Figure S9A
Procedure: Peptides corresponding to […] and […] were appended to the N terminus of maltose-binding protein (MBP) and cloned into pET-28a containing an N-terminal His6 tag followed by a TEV protease cleavage site. Fusion proteins were purified by Ni-NTA chromatography, digested with TEV protease, and passed over Ni-NTA resin again to remove TEV and the cleaved His6 tag. Final purification was performed by size-exclusion chromatography. The resulting proteins contained MBP fused to N-terminal Gly/N-degron overhangs. For pulldown experiments, approximately 100 μg MBP fusion protein was immobilized on 50 μL amylose resin and incubated with prey protein at a 1:1 molar ratio for 1 h at 4°C. Resin was washed three times, and bound proteins were eluted in sizing buffer supplemented with 20 mM maltose. Samples were analyzed by SDS-PAGE and Coomassie staining. Pulldown efficiency was quantified as the ratio of MBP–NLRP1 degron signal to ZYG11B signal in the same gel lane. […]
incubation of full-length Cyclin B1 without Gly/N-degron with ZYG11B–EloBC (top). SDS–PAGE analysis of the indicated fractions from the Superose 6 column (dashed lines) confirms complex formation (bottom) C, fluorescence anisotropy binding of ZYG11B-EloBC to indicated fluorescein-labeled peptides (left) and fitted equilibrium dissociation constants (right). […]

NLRP1 inflammasome = type: cell-based, human

Chain of ZYG11B-EloBC (Q9C0D3 whole entry, the tested form may be a part): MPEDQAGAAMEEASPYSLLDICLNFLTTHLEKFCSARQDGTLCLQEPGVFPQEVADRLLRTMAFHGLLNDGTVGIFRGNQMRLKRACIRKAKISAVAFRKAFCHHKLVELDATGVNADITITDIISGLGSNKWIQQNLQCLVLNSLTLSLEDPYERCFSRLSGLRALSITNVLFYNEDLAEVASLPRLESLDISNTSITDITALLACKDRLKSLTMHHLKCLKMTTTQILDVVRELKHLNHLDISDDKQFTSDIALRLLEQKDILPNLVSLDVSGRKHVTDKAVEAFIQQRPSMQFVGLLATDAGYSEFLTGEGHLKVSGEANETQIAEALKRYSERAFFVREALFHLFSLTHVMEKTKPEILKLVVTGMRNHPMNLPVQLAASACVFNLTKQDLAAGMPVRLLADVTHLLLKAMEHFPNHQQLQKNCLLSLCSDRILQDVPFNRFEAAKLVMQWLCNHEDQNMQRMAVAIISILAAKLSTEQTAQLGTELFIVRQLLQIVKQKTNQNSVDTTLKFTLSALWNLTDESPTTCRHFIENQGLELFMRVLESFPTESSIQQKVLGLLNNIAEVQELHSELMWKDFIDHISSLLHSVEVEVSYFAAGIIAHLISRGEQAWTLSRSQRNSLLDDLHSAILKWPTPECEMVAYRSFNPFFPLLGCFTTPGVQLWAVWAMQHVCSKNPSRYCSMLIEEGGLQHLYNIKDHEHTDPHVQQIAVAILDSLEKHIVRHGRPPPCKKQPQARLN
Chain of ZYG11B-EloBC (Q15370 whole entry partner, the tested form may be a part): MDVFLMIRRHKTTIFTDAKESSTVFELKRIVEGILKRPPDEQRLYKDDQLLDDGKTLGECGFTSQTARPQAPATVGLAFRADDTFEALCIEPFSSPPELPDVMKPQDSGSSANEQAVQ
Chain of ZYG11B-EloBC (Q15369 17-112 partner limits assumed): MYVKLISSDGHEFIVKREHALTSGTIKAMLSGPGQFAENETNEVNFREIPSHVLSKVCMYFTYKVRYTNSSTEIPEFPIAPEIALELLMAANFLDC

Row | Molecule | binding to ZYG11B-EloBC R466A mutant versus WT (ZYG11B-EloBC) | inflammasome activation of NLRP1 mutant upon HRV 3Cpro (NLRP1 inflammasome)
1 | B1 | relatively strong reduction | 
2 | B2 |  | reduced inflammasome activation
